From paper PMC6733935, “A convenient and efficient total solid-phase synthesis of DOTA-functionalized tumor-targeting peptides for PET imaging of cancer” (EJNMMI Research, 2019)
Numbered stars: 1 amine (or outer) side, 2 acyl side, 3 side chain; on linkers, the order of the positions; unused ones are H or OH. Square brackets hold non-standard residues; d marks the D form. Peptide text beside a SMILES is read from it. * marks the point of attachment. DOTA = O=C(O)CN1CCN(CC(=O)O)CCN(CC(=O)*)CCN(CC(=O)O)CC1; Cha = N[C@@H](CC1CCCCC1)C(=O)O; X1 = O=C(CCC(=O)[*:2])CN[*:1]; Nle = CCCC[C@H](N)C(=O)O; Ahx = NCCCCCC(=O)O

Columns and labels:
[1] = target: T1, BN/GRP receptor-positive T47D human breast cancer cells (Homo sapiens, UniProt P30550); assay: Saturation binding assay on T47D cells; conditions: n = 3-5 experiments; for Bmax (apparent number of binding sites per cell): SD < 15%; for Kd: ~300,000 cells, 0.1-25 nM radiopeptide, 60 min, room temperature, mean ± SD
T1 construct: BN/GRP receptor-positive MDA-MB-231, MCF7, T47D human breast cancer, and PC3 human prostate cancer lines; host or cells: MDA-MB-231, MCF7, T47D (human breast cancer), PC3 (human prostate cancer); intact cells
Procedure: (§1) The cell binding of ^68Ga-radiolabeled peptides into BN/GRP receptor-positive MDA-MB-231, MCF7, T47D human breast cancer, and PC3 human prostate cancer lines (American Type Culture Collection, Rockville, MD, USA) was performed according to the method described previously. In brief, ∼ 300,000 cells (in 300 μL in low-serum media) were incubated with various amounts of radiopeptides, ranging between 0.1 and 25 nM of peptide (prepared from the serial dilutions of HPLC-purified radiopeptides), in duplicate for 60 min at room temperature. The initial concentrations of ^68Ga-labeled peptides were determined according to a well-established HPLC technique with simultaneous detection by UV absorbance. As the amount of BN peptide in the reaction mixture was too small to be detected by UV absorption at 220 nm, the radioactive peptide chromatograms from the HPLC analysis were compared (with UV chromatograms) with those of known concentrations of the corresponding nonradioactive peptides for the mass determination. Incubation was terminated by dilution with cold saline (300 μL) and the cells were pelleted by centrifugation. The cell pellets was then rapidly washed with cold saline to remove any unbound peptide and centrifuged to collect supernatants. Radioactivity in the cell pellet and the washings was measured in a γ-counter. Non-specific binding was determined in the presence of ~ 200-fold molar excess of unlabeled BN peptide. Specific binding is calculated by subtracting the non-specifically bound radioactivity from that of the total binding. The dissociation constant (Kd) was calculated using a plot of cell bound activity versus the concentration of the radioligand using GraphPad Prism software (GraphPad Software Inc., San Diego, CA, USA).

[2] = target: T2, BN/GRP receptor-positive PC3 human prostate cancer cells (Homo sapiens, UniProt P30550); assay: Saturation binding assay on PC3 cells; conditions: n = 3-5 experiments; for Bmax (apparent number of binding sites per cell): SD < 15%; for Kd: ~300,000 cells, 0.1-25 nM radiopeptide, 60 min, room temperature, mean ± SD
T2 construct: BN/GRP receptor-positive MDA-MB-231, MCF7, T47D human breast cancer, and PC3 human prostate cancer lines; host or cells: MDA-MB-231, MCF7, T47D (human breast cancer), PC3 (human prostate cancer); intact cells
Procedure: as §1

MDA-MB-231 tumors = assay: in vivo; type: in vivo, nude mice; conditions: for Uptake in Tumor: nude mice with MDA-MB-231 tumors, mean ± SD, n = 3-5
Procedure: BN/GRP receptor-positive MDA-MB-231 and PC3 cell lines (American Type Culture Collection, Rockville, USA) were grown as monolayers at 37 °C in a humidified atmosphere containing RPMI-1640 culture media with 10% fetal bovine serum (FBS) in tissue culture flasks. Twenty-four hours prior to conducting the tumor implantation, the media was replaced with RPMI-1640/10% FBS. The cells were grown to 80-90% confluency and harvested by trypsinization. After centrifugation, about 50 million cells were suspended in 1 mL media for implantation into mice. To prepare cells for inoculation, MDA-MB-231 or PC3 cancer cells with media were centrifuged, the media decanted, and the cell pellet was mixed with phosphate-buffered saline (PBS) to reach a concentration of approximately 5 million cells per 100 μL PBS. Human MDA-MB-231 breast cancer xenografts female mouse models were used for in vivo tumor-targeting experiments. For the implantation of tumor xenografts, approximately five million MDA-MB-231 cells in suspension of 100 μL sterile PBS were injected subcutaneously into the left thigh of each mouse. Tumors were allowed to grow for 4-6 weeks by which tumors had reached weights of 200-300 mg. After sufficient growth of tumors, animals were injected with 20-30 μCi of the radiotracers and the animals were sacrificed at specified time points. The uptake of ^68Ga-radiolabeled peptides in the tumors and other major body organs was calculated by γ-counting as described above.

in vivo = assay: in vivo; set-up: species or system Balb/c mice; conditions: Balb/c, mouse, iv; for dose excreted at 1 h / dose excreted at 2 h / tissue uptake at 1 h / tissue uptake at 2 h: total radioactivity
Procedure: Approval for the animal protocol used in this study was obtained from the Institutional Animal Care and Use Committee. Animal studies were conducted according to the international regulations governing the safe and proper use of laboratory animals. In vivo biodistribution were performed on healthy Balb/c mice (n = 3–5 in each group, body weight 19–22 g) at 1 and 2 h after intravenous injection of the HPLC-purified radiopeptide (100 μL, 15–20 μCi, total peptide dose ~ 20 ng) via the lateral tail vein. The mice were sacrificed by cervical dislocation at specified time points and blood samples were withdrawn with a syringe from the heart. Major organs such as lungs, stomach, spleen, pancreas, intestines, liver, kidneys, etc. were isolated, weighed, and radioactivity in each organs and tissues were measured using a γ-scintillation counter. Uptake of radioactivity in the tissues and organs was expressed as the percent injected dose per gram (% ID/g) of tissue/organ, which was calculated by comparison with standard solutions representing 10% of the injected dose per animal. For the clearance studies, radioactivity in the urine with bladder and feces is expressed as the percent of the injected dose per tissue (% ID). Values are expressed as mean ± SD for a group of 3-5 animals at each time point.

[3] = female, nude, mouse, in vivo, 2 h
[4] = Uptake in Intestines (measured without their contents)
[5] = female, nude, mouse, in vivo, 1 h

With `CCCC[C@H](NC(=O)[C@H](Cc1c[nH]cn1)NC(=O)[C@H](CC1CCCCC1)NC(=O)[C@@H](NC(=O)[C@H](C)NC(=O)[C@H](Cc1c[nH]c2ccccc12)NC(=O)[C@H](CCC(N)=O)NC(=O)[C@H](CS)NC(=O)CNC(=O)CNC(=O)CCC(=O)CNC(=O)CN1CCN(CC(=O)O)CCN(CC(=O)O)CCN(CC(=O)O)CC1)C(C)C)C(=O)N[C@@H](CCSC)C(N)=O` [^68Ga-DOTA-ALA-BN Cyclen, metal not drawn] ({DOTA}-[X1]GGCQWAV[Cha]H[Nle]M-NH2) the “Bmax (apparent number of binding sites per cell)” value [1] was 9.90 × 10^4 sites/cell, the Kd [1] was 15.6 ± 3.47 nM and the “Bmax (apparent number of binding sites per cell)” value [2] was 2.12 × 10^5 sites/cell. The Kd [2] was 9.7 ± 2.01 nM, the “Uptake in Spleen” value (MDA-MB-231 tumors; [3]) was 0.17 ± 0.02 % ID/g and the “Uptake in Tumor” value (MDA-MB-231 tumors; 1 h p.i.) was 1.82 ± 0.26 % ID/g. The “Uptake in Tumor” value (MDA-MB-231 tumors; 2 h p.i.) was 0.84 ± 0.13 % ID/g, the “Uptake in Lungs” value (in vivo; 1 h) was 1.39 ± 0.30 %ID/g and the “%ID excreted in Urine” value (in vivo; 2 h) was 46.0 ± 9.12 %ID. For the same compound, the “Uptake in Liver” value (in vivo; 2 h) was 1.75 ± 0.26 %ID/g, the “Uptake in Lungs” value (in vivo; 2 h) was 0.98 ± 0.23 %ID/g and the dose excreted at 1 h (in vivo; %ID excreted in Feces) was 1.07 ± 0.17%. It also gave a dose excreted at 2 h (in vivo; %ID excreted in Feces) of 0.91 ± 0.14%, a dose excreted at 1 h (in vivo; %ID excreted in Urine) of 53 ± 6.8% and a tissue uptake at 1 h (in vivo; Uptake in Blood) of 0.8 ± 0.16 %ID/g. The tissue uptake at 2 h (in vivo; Uptake in Blood) was 0.51 ± 0.12 %ID/g, the tissue uptake at 1 h (in vivo; Uptake in Bone) was 0.24 ± 0.04 %ID/g and the tissue uptake at 2 h (in vivo; Uptake in Bone) was 0.15 ± 0.02 %ID/g. It also gave a tissue uptake at 1 h (in vivo; [4]) of 0.88 ± 0.15 %ID/g, a tissue uptake at 2 h (in vivo; [4]) of 0.73 ± 0.12 %ID/g and a tissue uptake at 1 h (in vivo; Uptake in Kidneys) of 5.89 ± 1 %ID/g. It also gave a tissue uptake at 2 h (in vivo; Uptake in Kidneys) of 3.05 ± 0.41 %ID/g, a tissue uptake at 1 h (in vivo; Uptake in Liver) of 2.3 ± 0.37 %ID/g and a tissue uptake at 1 h (in vivo; Uptake in Pancreas) of 1.54 ± 0.31 %ID/g. The tissue uptake at 2 h (in vivo; Uptake in Pancreas) was 0.89 ± 0.12 %ID/g, the tissue uptake at 1 h (in vivo; Uptake in Spleen) was 0.1 ± 0.01 %ID/g and the tissue uptake at 2 h (in vivo; Uptake in Spleen) was 0.08 %ID/g. The tissue uptake at 1 h (in vivo; Uptake in Stomach) was 1.5 ± 0.37 %ID/g and the tissue uptake at 2 h (in vivo; Uptake in Stomach) was 0.44 ± 0.1 %ID/g.

With `CCCC[C@H](NC(=O)[C@H](Cc1c[nH]cn1)NC(=O)[C@H](CC1CCCCC1)NC(=O)[C@@H](NC(=O)[C@H](C)NC(=O)[C@H](Cc1c[nH]c2ccccc12)NC(=O)[C@H](CCC(N)=O)NC(=O)[C@H](CS)NC(=O)CNC(=O)CNC(=O)CCCCCNC(=O)CN1CCN(CC(=O)O)CCN(CC(=O)O)CCN(CC(=O)O)CC1)C(C)C)C(=O)N[C@@H](CCSC)C(N)=O` [^68Ga-DOTA-Ahx-BN Cyclen, metal not drawn] ({DOTA-Ahx}-GGCQWAV[Cha]H[Nle]M-NH2) the “Bmax (apparent number of binding sites per cell)” value [1] was 4.75 × 10^5 sites/cell, the Kd [1] was 15.3 ± 3.42 nM and the “Bmax (apparent number of binding sites per cell)” value [2] was 5.29 × 10^5 sites/cell. For the same compound, the Kd [2] was 9.89 ± 1.56 nM, the “washout from the tumors over 2 h” value (MDA-MB-231 tumors; MDA-MB-231 tumors, nude mice, 1 h vs 2 h p.i.) was 28% and the “Uptake in Liver” value (MDA-MB-231 tumors; [5]) was 1.02 ± 0.16 % ID/g. The “Uptake in Lungs” value (MDA-MB-231 tumors; [5]) was 0.55 ± 0.10 % ID/g, the “Uptake in Liver” value (MDA-MB-231 tumors; [3]) was 0.91 ± 0.10 % ID/g and the “Uptake in Tumor” value (MDA-MB-231 tumors; 1 h p.i.) was 2.32 ± 0.25 % ID/g. For the same compound, the “Uptake in Tumor” value (MDA-MB-231 tumors; 2 h p.i.) was 1.65 ± 0.19 % ID/g, the “Uptake in Lungs” value (in vivo; 2 h) was 0.10 ± 0.02 %ID/g and the dose excreted at 1 h (in vivo; %ID excreted in Feces) was 0.85 ± 0.17%. The dose excreted at 2 h (in vivo; %ID excreted in Feces) was 0.76 ± 0.11%, the dose excreted at 1 h (in vivo; %ID excreted in Urine) was 80 ± 9.8% and the dose excreted at 2 h (in vivo; %ID excreted in Urine) was 64 ± 6.35%. For the same compound, the tissue uptake at 1 h (in vivo; Uptake in Blood) was 0.18 ± 0.04 %ID/g, the tissue uptake at 2 h (in vivo; Uptake in Blood) was 0.11 ± 0.03 %ID/g and the tissue uptake at 1 h (in vivo; Uptake in Bone) was 0.15 ± 0.03 %ID/g. It also gave a tissue uptake at 2 h (in vivo; Uptake in Bone) of 0.06 %ID/g, a tissue uptake at 1 h (in vivo; [4]) of 0.64 ± 0.12 %ID/g and a tissue uptake at 2 h (in vivo; [4]) of 0.41 ± 0.05 %ID/g. The tissue uptake at 1 h (in vivo; Uptake in Kidneys) was 1.98 ± 0.34 %ID/g, the tissue uptake at 2 h (in vivo; Uptake in Kidneys) was 1.41 ± 0.27 %ID/g and the tissue uptake at 1 h (in vivo; Uptake in Liver) was 0.61 ± 0.1 %ID/g. For the same compound, the tissue uptake at 2 h (in vivo; Uptake in Liver) was 0.46 ± 0.07 %ID/g, the tissue uptake at 1 h (in vivo; Uptake in Lungs) was 0.19 ± 0.04 %ID/g and the tissue uptake at 1 h (in vivo; Uptake in Pancreas) was 1.49 ± 0.12 %ID/g. The tissue uptake at 2 h (in vivo; Uptake in Pancreas) was 1.02 ± 0.15 %ID/g, the tissue uptake at 1 h (in vivo; Uptake in Spleen) was 0.13 ± 0.01 %ID/g and the tissue uptake at 2 h (in vivo; Uptake in Spleen) was 0.09 ± 0.01 %ID/g. The tissue uptake at 1 h (in vivo; Uptake in Stomach) was 1.48 ± 0.22 %ID/g and the tissue uptake at 2 h (in vivo; Uptake in Stomach) was 0.43 ± 0.11 %ID/g.
